Laboratory results as given in patent US20210024646A1 (FUDAN UNIVERSITY, published 2021).

Assays:
[1] = molecular target: T1, extracellular domain of human CD73 protein (CD73-ECD), C-terminus polyhistidine-tagged (human, UniProt P21589 27-547); assay: ELISA, coated CD73-ECD
T1 construct: also called Human CD73-ECD; human recombinant CD73 enzyme (CD73 extracellular domain)
T1 sequence: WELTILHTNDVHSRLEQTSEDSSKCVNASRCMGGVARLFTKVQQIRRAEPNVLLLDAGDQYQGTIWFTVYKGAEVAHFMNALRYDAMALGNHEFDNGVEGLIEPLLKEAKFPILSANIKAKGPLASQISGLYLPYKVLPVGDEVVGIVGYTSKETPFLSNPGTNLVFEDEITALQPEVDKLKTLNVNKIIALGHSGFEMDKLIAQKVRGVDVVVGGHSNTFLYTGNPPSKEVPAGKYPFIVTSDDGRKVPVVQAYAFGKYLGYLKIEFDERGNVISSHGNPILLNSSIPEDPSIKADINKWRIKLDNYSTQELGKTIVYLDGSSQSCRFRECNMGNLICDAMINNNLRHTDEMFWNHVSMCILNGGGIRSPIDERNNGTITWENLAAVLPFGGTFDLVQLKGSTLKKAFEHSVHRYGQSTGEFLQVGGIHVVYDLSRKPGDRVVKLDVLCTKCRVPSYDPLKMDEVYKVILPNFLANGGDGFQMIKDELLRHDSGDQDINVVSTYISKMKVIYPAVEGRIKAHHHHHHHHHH

[2] = molecular target: T2, CD73 on the surface of human tumor cells (human, UniProt P21589 27-549); assay: confocal microscopy, 5 µg/mL antibody, MDA-MB-231 cells
T2 construct: whole, on cells; One entry for endogenous CD73 on all cell lines; the cell line is named under assay or readout; also called CD73 receptors on the surface of tumor cells; tumor cell CD73
T2 sequence (looked up): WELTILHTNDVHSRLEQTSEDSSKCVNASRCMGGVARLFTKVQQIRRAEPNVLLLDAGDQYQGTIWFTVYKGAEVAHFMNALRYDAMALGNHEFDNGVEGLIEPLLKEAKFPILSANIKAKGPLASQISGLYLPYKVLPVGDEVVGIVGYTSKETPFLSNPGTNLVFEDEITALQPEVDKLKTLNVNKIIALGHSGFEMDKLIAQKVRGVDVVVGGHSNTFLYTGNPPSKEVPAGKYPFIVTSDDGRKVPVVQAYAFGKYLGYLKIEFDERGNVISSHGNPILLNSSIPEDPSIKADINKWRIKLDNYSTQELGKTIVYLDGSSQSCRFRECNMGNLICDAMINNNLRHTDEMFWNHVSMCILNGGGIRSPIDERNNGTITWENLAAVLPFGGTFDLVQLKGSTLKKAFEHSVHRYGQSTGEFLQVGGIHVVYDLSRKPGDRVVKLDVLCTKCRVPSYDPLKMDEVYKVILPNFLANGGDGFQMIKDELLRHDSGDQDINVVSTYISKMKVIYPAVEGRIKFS
Description: The antibodies (5 μg/mL) were incubated with the cells at 4° C. for 1 hour, or at 37° C. for 4 hours, and then placed under a laser scanning confocal microscope to observe the results.
MDA-MB-231 cells of 50% density were spread in a laser confocal culture dish, cultured at 37° C. for 16 hours, and then 5 μg/mL CD73 antibody was added. The cells were incubated at 37° C. for 4 hours or 4° C. for 1 hour, washed three times with PBS to remove the antibodies unbound to the cells, and immobilized with 4% paraformaldehyde at room temperature for 30 minutes. The cells were washed three times with PBS and permeabilized with 0.4% Triton X-100 for 10 minutes. The cells were washed three times with PBS, the Lamp-2 (rabbit anti-human) antibody was added and incubated at 37° C. for 1 hour to mark the position of cell lysosome. The unbound antibodies were washed off with PBS, and R-PE-labeled goat anti-human and Alexa Fluor 488-labeled donkey anti-rabbit secondary antibodies were added and incubated at 37° C. for 30 min.

[3] = molecular target: T2, CD73 on the surface of human tumor cells; assay: FACS, purified antibody serial dilution, MDA-MB-231 cells
[4] = molecular target: T1, extracellular domain of human CD73 …; assay: cell-based or functional assay
[5] = molecular target: T2, CD73 on the surface of human tumor cells; assay: FACS, NCI-H1299 cells
Description: Alternatively, 100 μL of mAb001c, mAb002c, mAb004c diluted in a 3-fold gradient from 100 nM to 0.046 nM were used as primary antibodies and mixed with 1×10⁵ NCI-H1299 cells suspended in 100 μL RPMI-1640 serum-free medium. Then the obtained solutions were incubated at 4° C. for 1 h, the cells were washed twice with PBS to remove unbound primary antibody, and the target cells were incubated with 200 μL PE-labeled secondary antibody (2 μg/mL) at 4° C. for 30 min. The cells were washed twice with PBS to remove unbound secondary antibody. Finally, the cells were resuspended in 200 μL PBS, and the binding affinities of the test antibodies to CD73 on the cell surface were determined by a flow cytometer.
With reference to the methods in Examples 4-8, the ELISA affinity to CD73-ECD protein, the inhibitory activity on recombinant human CD73 enzyme, the binding affinity to tumor cells, and the inhibitory activity on CD73 enzyme of tumor cells of the above prepared MEDI9447-κ as well as the antibodies mAb001c and mAb002c were detected.

[6] = molecular target: T2, CD73 on the surface of human tumor cells; assay: FACS, MDA-MB-231 cells
[7] = molecular target: T2, CD73 on the surface of human tumor cells; assay: cell-based or functional assay
[8] = molecular target: T2, CD73 on the surface of human tumor cells; assay: flow cytometry, NCI-H1299 cells
[9] = molecular target: T2, CD73 on the surface of human tumor cells; assay: flow cytometry, MDA-MB-231 cells
[10] = molecular target: T2, CD73 on the surface of human tumor cells; assay: FACS, 5 µg/mL antibody, CD73-high Calu-1 against CD73-low MDA-MB-453 cells
Description: 3×10⁵ tumor cells were mixed well with the antibody (final concentration was 5 μg/mL), and then incubated at 4° C. for 1 h. The cells were washed twice with PBS to remove the unbound primary antibody. Then the target cells were incubated with PE-labeled secondary antibody at 4° C. for 30 minutes. The cells were washed twice with PBS to remove the unbound secondary antibody. Finally, the cells were resuspended in 200 μL PBS and the binding rate was detected with a Fluorescence Activated Cell Sorter (FACS).
The chimeric antibody could specifically recognize and bind tumor cells with CD73 high expression.

B1: Hu001c-14 (antibody, V domains shown)
VH: QVQLVQSGAEVKKPGASVKVSCKTSGYTFTNYYIYWVRQAPGQRLEWMGWIYPGNLNIKYNEKFKGRVTITADTSASTAYMELSSLRSEDTAVYYCARDDNYAWFAYWGQGTLVTVSS
VL: DIQMTQSPSSLSASVGDRVTITCKASQDVSTAVAWYQQKPGKAPKLLIYWTNTRHTGVPSRFSGSGSGTDHTLTISSLQPEDFATYYCQQHYSTPFTFGQGTKLEIK
notes: Humanized
- binding result [1]: binds
- binding result [2]: binds

B2: Hu001c-15 (antibody, V domains shown)
VH: QVQLVQSGAEVKKPGASVKVSCKTSGYTFTNYYIYWVRQAPGQRLEWMGWIYPGNLNIKYNEKFKGRVTITADTSASTAYMELSSLRSEDTAVYYCARDDNYAWFAYWGQGTLVTVSS
VL: DIQMTQSPSSLSASVGDRVTITCKASQDVSTAVAWYQQKPGKSPKLLIYWTNTRHTGVPSRFSGSGSGTDHTLTISSLQPEDFATYYCQQHYSTPFTFGQGTKLEIK
notes: Humanized
- binding result [1]: binds
- binding result [2]: binds

B3: mAb001 (antibody, IgG1, V domains shown)
VH: QVQLQQSGPELVKPGASVRISCKTSGYTFTNYYIYWVKQRPGQGLEWIGWIYPGNLNIKYNEKFKGKSTLTADKSSSTAFMQLSSLTSEDSAVYFCARDDNYAWFAYWGQGTLVTVSS
VL: DIVMTQSHKFMSTSIGDRVSITCKASQDVSTAVAWYQQKPGQSPKLLIYWTNTRHTGVPDRFTGNTSGTEHTLTISSVQAEDLALYYCQQHYSTPFTFGSGTTLEIK
- EC50 [3]: 1.24 nM

B4: mAb002c (antibody, V domains shown)
VH: QVQLQQPGAELVKPGASVRLSCKASGYTLTSYWMHWVKKRPGQGLEWIGEINPSNGRSNYNEKFKSKATLTVDRSSSTVYMQLGSLTSEDSAVYYCARRGVSGNYFDYWGQGTTLTVSS
VL: DIKMTQSPSSMYASLGERVTMTCKASQDINTYLSWFQQKPGKSPKTLIYRSNILVDGVPSRFSGSRSGQDYYLTITSLEYEDMGIYYCLQYDEFPYTFGGGTKLELK
notes: also called human-mouse chimeric antibody mAb002c
- EC50 [1]: 0.016 nM
- IC50, inhibition of AMP hydrolysis by recombinant human CD73 (CellTiter-Glo) [4]: 0.031 nM
- EC50 [5]: 0.391 nM
- EC50 [6]: 0.356 nM
- Calu-1 CD73 Enzyme Inhibition IC50 [7]: 0.281 nM
- MDA-MB-231 CD73 Enzyme Inhibition IC50 [7]: 0.791 nM
- NCI-H1299 CD73 Enzyme Inhibition IC50 [7]: 0.191 nM
- EC50 [8]: 0.39 nM
- EC50 [9]: 0.36 nM
- difference in binding rate (MFI), Calu-1 against MDA-MB-453 [10]: 978 times

B5: mAb002 (antibody, IgG1, V domains shown)
VH: QVQLQQPGAELVKPGASVRLSCKASGYTLTSYWMHWVKKRPGQGLEWIGEINPSNGRSNYNEKFKSKATLTVDRSSSTVYMQLGSLTSEDSAVYYCARRGVSGNYFDYWGQGTTLTVSS
VL: DIKMTQSPSSMYASLGERVTMTCKASQDINTYLSWFQQKPGKSPKTLIYRSNILVDGVPSRFSGSRSGQDYYLTITSLEYEDMGIYYCLQYDEFPYTFGGGTKLELK
- EC50 [3]: 0.65 nM

B6: mAb004 (antibody, IgG2b, V domains shown)
VH: EVQLQQSGPELVKPGASVKIPCKASGYTFTDYNMDWVKQSHGKSLEWIGDINPNNGGSVYNQKFKGKATLTVDKSSSTAYMELRSLTSEDTAVYYCGRITGTGYWSFDVWGTGTTVTVSP
VL: DIQMTQSPASLSVSVGETVTITCRASENIYSNLAWYQQKQGKSPQLLVYGATNLAEGVPSRFSGSGLGTQYSLKISSLQSEDFGSYYCQHFWGIPWTFGGGTKLEIK
- EC50 [3]: 4.69 nM
